Data taken from patent publication US20190359693A1.

Experiments:
Experiment in all cases: cell-based or functional assay
[1] = molecular target: hemagglutinin (HA) of influenza B/Malaysia/2506/04 (Victoria) (influenza B virus)
[2] = molecular target: hemagglutinin (HA) of influenza B/Massachusetts/02/12 (Yamagata) (influenza B virus)
[3] = molecular target: hemagglutinin (HA) of influenza B/Florida/04/06 (Yamagata) (influenza B virus)
[4] = molecular target: hemagglutinin (HA) of influenza B/Lee/40 (Old) (influenza B virus) (UniProt P03460)
[5] = molecular target: hemagglutinin (HA) of influenza B/Harbin/7/94 (Yamagata) (influenza B virus)
[6] = molecular target: HA of H1N1 A/Puerto Rico/8/34-MA (influenza A virus)
[7] = molecular target: HA of H1N1 A/New Caledonia/20/1999 (influenza A virus)
[8] = molecular target: HA of H5N1 A/Vietnam/1194/04 (influenza A virus)
[9] = molecular target: HA of H7N3 A/NIBRG/60 (A/mallard/NL/12/00) (influenza A virus)
[10] = molecular target: HA of H3N2 A/Brisbane/10/2007 (influenza A virus)
[11] = molecular target: hemagglutinin (HA) of influenza virus H3N2 A/Wisconsin/67/05 (influenza A virus)
[12] = molecular target: hemagglutinin (HA) of influenza virus H5N1 A/Vietnam/1194/04 (influenza A virus)
[13] = molecular target: hemagglutinin (HA) of influenza virus H1N1 A/Puerto Rico/8/34-MA (influenza A virus)
[14] = molecular target: hemagglutinin (HA) of influenza virus H1N1 A/California/07/09 (influenza A virus)
[15] = molecular target: hemagglutinin (HA) of influenza virus H1N1 A/New Caledonia/20/99 (influenza A virus)
[16] = molecular target: hemagglutinin (HA) of influenza virus B/Florida/04/06 (Yamagata) (influenza B virus)
[17] = molecular target: hemagglutinin (HA) of influenza virus H7N3 A/NIBRG/60 (A/mallard/Netherlands/12/00) (influenza A virus)
[18] = molecular target: hemagglutinin (HA) of influenza virus H3N2 A/Brisbane/10/07 (influenza A virus)
[19] = molecular target: hemagglutinin (HA) of influenza virus H7N7 A/PR8 H7N7-NY (influenza A virus)

Binder	neutralization titer [11] [nM]	neutralization titer [12] [nM]	neutralization titer [13] [nM]	neutralization titer [14] [nM]	average neutralization titer [11] [nM]	average neutralization titer [17] [nM]	average neutralization titer [19] [nM]	further results
SD3087 (VHH) VHH: EVQLLESGGGLVQPGGSLRLSCAASGFTLENKAIGWFRQAPGKEREGVLCISKSGSWTYYADSVKGRFTISRDNSKNTVYLQMNSLRPEDTAVYYCATTTAGGGLCWDGTTFSRLASSWGQGTLVTVSS	–	–	–	–	–	–	–	VNA IC50 [1]: 81 nM; VNA IC50 [2]: 104 nM; VNA IC50 [3]: 160 nM; VNA IC50 [4]: 91 nM; VNA IC50 [5]: 201 nM
SD3085 (VHH) VHH: EVQLVESGGGLVQPGGSLRLSCAASGFTFSTSWMYWLRQAPGKGLEWVSVINTDGGTYYADSVKGRFTISRDNSKNTLYLQMNSLRAEDTAVYYCAKDWGGPEPTRGQGTLVTVSS	–	–	–	–	–	–	–	VNA IC50 [1]: 13 nM; VNA IC50 [2]: 32 nM; VNA IC50 [3]: 64 nM; VNA IC50 [4]: > 1000 nM; VNA IC50 [5]: 228 nM
SD3092 (VHH) VHH: EVQLVESGGGLVQPGGSLRLSCAISGLSLDTYAVGWFRQAPGKEREGVSCISSGHGMTYYADSVKGRFTISTDNSKNTLYLQMNSLRAEDTAVYYCATESRYYCSDNWPAPQRYIYWGQGTLVTVSS	–	–	–	–	–	–	–	VNA IC50 [1]: 40 nM; VNA IC50 [2]: > 1000 nM; VNA IC50 [3]: > 1000 nM; VNA IC50 [4]: 40 nM; VNA IC50 [5]: > 1000 nM
SD1034 (VHH) VHH: EVQLVESGGGLVQAGGSLRLSCAASGTIFGIRVNTMGWYRQAPGEQRELVATITRSGGTNYADSVKDRFTISGDFAKDTVYLQMMHLKPEDTAVYYCNGRWALTDYWGQGTQVTVSS	–	–	–	–	–	–	–	VNA titer [6]: 756 nM; VNA titer [7]: 161 nM; VNA titer [8]: 722 nM; VNA titer [9]: > 1000 nM; VNA titer [10]: > 1000 nM
MD1213 (VHH) EVQLVESGGGLVQAGGSLKLSCAASGRTYAMGWFRQAPGKEREFVAHINALGTRTYYSDSVKGRFTISRDNAKNTEYLEMNNLKPEDTAVYYCTAQGQWRAAPVAVAAEYEFWGQGTQVTVSSAAAGGGGSGGGGSGGGGSEVQLVESGGGLVQAGGSLKLSCAASGRTYAMGWFRQAPGKEREFVAHINALGTRTYYSDSVKGRFTISRDNAKNTEYLEMNNLKPEDTAVYYCTAQGQWRAAPVAVAAEYEFWGQGTQVTVSS	18.6	< 1000	27.8	2.4	–	–	–	–
MD1215 (VHH) EVQLVESGGGLVQAGGSLKLSCAASGRTYAMGWFRQAPGKEREFVAHINALGTRTYYSDSVKGRFTISRDNAKNTEYLEMNNLKPEDTAVYYCTAQGQWRAAPVAVAAEYEFWGQGTQVTVSSAAAGGGGSGGGGSGGGGSGGGGSGGGGGGSGGGGSGGGGSGGGGSGGGGSGGGGSGGGGSEVQLVESGGGLVQAGGSLKLSCAASGRTYAMGWFRQAPGKEREFVAHINALGTRTYYSDSVKGRFTISRDNAKNTEYLEMNNLKPEDTAVYYCTAQGQWRAAPVAVAAEYEFWGQGTQVTVSS	34.1	918	39.6	4.1	–	–	–	–
MD1214 (bispecific antibody) EVQLVESGGGLVQPGGSLRLSCAVSISIFDIYAMDWYRQAPGKQRDLVATSFRDGSTNYADSVKGRFTISRDNAKNTLYLQMNSLKPEDTAVYLCHVSLYRDPLGVAGGMGVYWGKGALVTVSSAAAGGGGSGGGGSGGGGSEVQLVESGGGLVQAGGSLKLSCAASGRTYAMGWFRQAPGKEREFVAHINALGTRTYYSDSVKGRFTISRDNAKNTEYLEMNNLKPEDTAVYYCTAQGQWRAAPVAVAAEYEFWGQGTQVTVSS	12.5	0.9	7.5	1.4	–	–	–	–
MD1216 (bispecific antibody) EVQLVESGGGLVQPGGSLRLSCAVSISIFDIYAMDWYRQAPGKQRDLVATSFRDGSTNYADSVKGRFTISRDNAKNTLYLQMNSLKPEDTAVYLCHVSLYRDPLGVAGGMGVYWGKGALVTVSSAAAGGGGSGGGGSGGGGSGGGGSGGGGGGSGGGGSGGGGSGGGGSGGGGSGGGGSGGGGSEVQLVESGGGLVQAGGSLKLSCAASGRTYAMGWFRQAPGKEREFVAHINALGTRTYYSDSVKGRFTISRDNAKNTEYLEMNNLKPEDTAVYYCTAQGQWRAAPVAVAAEYEFWGQGTQVTVSS	12.1	3.4	9.7	1.4	–	–	–	–
MD2303 (bispecific antibody) EVQLVESGGGLVQPGGSLRLSCAVSISIFDIYAMDWYRQAPGKQRDLVATSFRDGSTNYADSVKGRFTISRDNAKNTLYLQMNSLKPEDTAVYLCHVSLYRDPLGVAGGMGVYWGKGALVTVSSGGGGSGGGGSEVQLVESGGGLVQAGGSLKLSCAASGRTYAMGWFRQAPGKEREFVAHINALGTRTYYSDSVKGRFTISRDNAKNTEYLEMNNLKPEDTAVYYCTAQGQWRAAPVAVAAEYEFWGQGTQVTVSSGGGGSGGGGSEVQLVESGGGLVQPGGSLRLSCAATGFTLENKAIGWFRQTPGSEREGVLCISKSGSWTYYTDSMRGRFTISRDNAENTVYLQMDSLKPEDTAVYYCATTTAGGGLCWDGTTFSRLASSWGQGTQVTVSS	–	–	–	–	15	10.2	18.2	average neutralization titer [15]: 7.2 nM; average neutralization titer [16]: 412 nM; average neutralization titer [12]: 9.1 nM; average neutralization titer [13]: 9.1 nM; average neutralization titer [18]: 12.8 nM
MD2317 (bispecific antibody) EVQLVESGGGLVQPGGSLRLSCAVSISIFDIYAMDWYRQAPGKQRDLVATSFRDGSTNYADSVKGRFTISRDNAKNTLYLQMNSLKPEDTAVYLCHVSLYRDPLGVAGGMGVYWGKGALVTVSSGGGGSGGGGSEVQLVESGGGLVQAGDSLRISCAASGRTLSIYSMGWFRQAPGKEREFVATIGWNSGRTFYPDSLKGRFTISRDNARNTLYLQMNNLRPEDTAVYYCAAAKGPLRLSSQADYWGQGTQVTVSSGGGGSGGGGSEVQLVESGGGLVQPGGSLRLSCAATGFTLENKAIGWFRQTPGSEREGVLCISKSGSWTYYTDSMRGRFTISRDNAENTVYLQMDSLKPEDTAVYYCATTTAGGGLCWDGTTFSRLASSWGQGTQVTVSS	–	–	–	–	12.8	12.8	12.8	–
MD2320 (bispecific antibody) EVQLVESGGGLVQAGDSLRISCAASGRTLSIYSMGWFRQAPGKEREFVATIGWNSGRTFYPDSLKGRFTISRDNARNTLYLQMNNLRPEDTAVYYCAAAKGPLRLSSQADYWGQGTQVTVSSGGGGSGGGGSEVQLVESGGGLVQPGGSLRLSCAVSISIFDIYAMDWYRQAPGKQRDLVATSFRDGSTNYADSVKGRFTISRDNAKNTLYLQMNSLKPEDTAVYLCHVSLYRDPLGVAGGMGVYWGKGALVTVSSGGGGSGGGGSEVQLVESGGGLVQPGGSLRLSCAATGFTLENKAIGWFRQTPGSEREGVLCISKSGSWTYYTDSMRGRFTISRDNAENTVYLQMDSLKPEDTAVYYCATTTAGGGLCWDGTTFSRLASSWGQGTQVTVSS	–	–	–	–	> 1000	15.3	15.3	–
MD2322 (VHH) EVQLVESGGGLVQPGGSLRLSCAVSISIFDIYAMDWYRQAPGKQRDLVATSFRDGSTNYADSVKGRFTISRDNAKNTLYLQMNSLKPEDTAVYLCHVSLYRDPLGVAGGMGVYWGKGALVTVSSGGGGSGGGGSEVQLVESGGGLVQPGGSLRLSCAVSISIFDIYAMDWYRQAPGKQRDLVATSFRDGSTNYADSVKGRFTISRDNAKNTLYLQMNSLKPEDTAVYLCHVSLYRDPLGVAGGMGVYWGKGALVTVSSGGGGSGGGGSEVQLVESGGGLVQPGGSLRLSCAVSISIFDIYAMDWYRQAPGKQRDLVATSFRDGSTNYADSVKGRFTISRDNAKNTLYLQMNSLKPEDTAVYLCHVSLYRDPLGVAGGMGVYWGKGALVTVSS	–	–	–	–	7.3	6.1	14.7	–
MD2406 (VHH) EVQLVESGGGLVQPGGSLRLSCAVSISIFDIYAMDWYRQAPGKQRDLVATSFRDGSTNYADSVKGRFTISRDNAKNTLYLQMNSLKPEDTAVYLCHVSLYRDPLGVAGGMGVYWGKGALVTVSSGGGGSGGGGSEVQLVESGGGLVQPGGSLRLSCAVSISIFDIYAMDWYRQAPGKQRDLVATSFRDGSTNYADSVKGRFTISRDNAKNTLYLQMNSLKPEDTAVYLCHVSLYRDPLGVAGGMGVYWGKGALVTVSSGGGGSGGGGSEVQLVESGGGLVQPGGSLRLSCAVSISIFDIYAMDWYRQAPGKQRDLVATSFRDGSTNYADSVKGRFTISRDNAKNTLYLQMNSLKPEDTAVYLCHVSLYRDPLGVAGGMGVYWGKGALVTVSSGGGGSGGGGSEVQLVESGGGLVQPGGSLRLSCAVSISIFDIYAMDWYRQAPGKQRDLVATSFRDGSTNYADSVKGRFTISRDNAKNTLYLQMNSLKPEDTAVYLCHVSLYRDPLGVAGGMGVYWGKGALVTVSS	–	–	–	–	4.6	4.6	11	–
